T1: Ep-CAM (Epithelial Cell Adhesion Molecule) (UniProt P16422 24-314, limits assumed)
T1 construct: whole, on cells; Endogenous antigen on tumour cell lines; also called 17-1A; KSA
T1 sequence (looked up): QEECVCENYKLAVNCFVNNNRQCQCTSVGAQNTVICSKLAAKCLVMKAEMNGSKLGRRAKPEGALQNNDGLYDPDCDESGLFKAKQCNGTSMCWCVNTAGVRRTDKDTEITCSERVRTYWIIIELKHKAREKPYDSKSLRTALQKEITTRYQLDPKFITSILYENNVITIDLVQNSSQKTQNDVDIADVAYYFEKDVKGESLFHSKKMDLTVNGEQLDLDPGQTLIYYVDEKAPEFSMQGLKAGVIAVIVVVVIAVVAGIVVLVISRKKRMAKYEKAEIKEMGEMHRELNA

B1: VB6-845-F-de-bouganin (Fab)
chain 1: HHHHHHEVQLVQSGPGLVQPGGSVRISCAASGYTFTNYGMNWVKQAPGKGLEWMGWINTYTGESTYADSFKGRFTFSLDTSASAAYLQINSLRAEDTAVYYCARFAIKGDYWGQGTLLTVSSASTKGPSVFPLAPSSKSTSGGTAALGCLVKDYFPEPVTVSWNSGALTSGVHTFPAVLQSSGLYSLSSVVTVPSSSLGTQTYICNVNHKPSNTKVDKKVEPKSC
chain 2: DIQMTQSPSSLSASVGDRVTITCRSTKSLLHSNGITYLYWYQQKPGKAPKLLIYQMSNLASGVPSRFSSSGSGTDFTLTISSLQPEDFATYYCAQNLEIPRTFGQGTKVELKRTVAAPSVFIFPPSDEQLKSGTASVVCLLNNFYPREAKVQWKVDNALQSGNSQESVTEQDSKDSTYSLSSTLTLSKADYEKHKVYACEVTHQGLSSPVTKSFNRGECTRHRQPRGWEQLYNTVSFNLGEAYEYPTFIQDLRNELAKGTPVCQLPVTLQTIADDKRFVLVDITTTSKKTVKVAIDVTDVYVVGYQDKWDGKDRAVFLDKVPTVATSKLFPGVTNRVTLTFDGSYQKLVNAAKADRKALELGVNKLEFSIEAIHGKTINGQEAAKFFLIVIQMVSEAARFKYIETEVVDRGLYGSFKPNFKVLNLENNWGDISDAIHKSSPQCTTINPALQLISPSNDPWVVNKVSQISPDMGILKFKSSK
notes: also called VB6-845L-F-de-bouganin
B2: VB6-845-CB1-CD-de-bouganin (Fab)
chain 1: B1 chain 1
chain 2: DIQMTQSPSSLSASVGDRVTITCRSTKSLLHSNGITYLYWYQQKPGKAPKLLIYQMSNLASGVPSRFSSSGSGTDFTLTISSLQPEDFATYYCAQNLEIPRTFGQGTKVELKRTVAAPSVFIFPPSDEQLKSGTASVVCLLNNFYPREAKVQWKVDNALQSGNSQESVTEQDSKDSTYSLSSTLTLSKADYEKHKVYACEVTHQGLSSPVTKSFNRGECQGVGFLGTQFFYNTVSFNLGEAYEYPTFIQDLRNELAKGTPVCQLPVTLQTIADDKRFVLVDITTTSKKTVKVAIDVTDVYVVGYQDKWDGKDRAVFLDKVPTVATSKLFPGVTNRVTLTFDGSYQKLVNAAKADRKALELGVNKLEFSIEAIHGKTINGQEAAKFFLIVIQMVSEAARFKYIETEVVDRGLYGSFKPNFKVLNLENNWGDISDAIHKSSPQCTTINPALQLISPSNDPWVVNKVSQISPDMGILKFKSSK
notes: also called CB1-CD construct
B3: VB6-845-F1R-de-bouganin (Fab)
chain 1: B1 chain 1
chain 2: DIQMTQSPSSLSASVGDRVTITCRSTKSLLHSNGITYLYWYQQKPGKAPKLLIYQMSNLASGVPSRFSSSGSGTDFTLTISSLQPEDFATYYCAQNLEIPRTFGQGTKVELKRTVAAPSVFIFPPSDEQLKSGTASVVCLLNNFYPREAKVQWKVDNALQSGNSQESVTEQDSKDSTYSLSSTLTLSKADYEKHKVYACEVTHQGLSSPVTKSFNRGECTRHRRKRSVYNTVSFNLGEAYEYPTFIQDLRNELAKGTPVCQLPVTLQTIADDKRFVLVDITTTSKKTVKVAIDVTDVYVVGYQDKWDGKDRAVFLDKVPTVATSKLFPGVTNRVTLTFDGSYQKLVNAAKADRKALELGVNKLEFSIEAIHGKTINGQEAAKFFLIVIQMVSEAARFKYIETEVVDRGLYGSFKPNFKVLNLENNWGDISDAIHKSSPQCTTINPALQLISPSNDPWVVNKVSQISPDMGILKFKSSK
notes: also called F1R linker construct

What was measured:
[1] = biological target: T1, Ep-CAM (Epithelial Cell Adhesion …); experiment: flow cytometry on CAL 27 cells (Ep-CAM-positive)
[2] = biological target: T1, Ep-CAM (Epithelial Cell Adhesion …); experiment: flow cytometry on NIH:OVCAR-3 cells (Ep-CAM-positive)
[3] = biological target: T1, Ep-CAM (Epithelial Cell Adhesion …); experiment: flow cytometry on CAL 27 cells (Ep-CAM-positive); one representative experiment
[4] = biological target: T1, Ep-CAM (Epithelial Cell Adhesion …); experiment: flow cytometry on NIH:OVCAR-3 cells (Ep-CAM-positive); one representative experiment

| Binder | Median Fold (MF) increase [1] [fold] | Median Fold (MF) increase [2] [fold] | Median Fold (MF) increase [3] [fold] | Median Fold (MF) increase [4] [fold] |
| --- | --- | --- | --- | --- |
| B1 | 63.6 | 130 |  |  |
| B2 |  |  | 68 | 110 |
| B3 | 55 | 112 |  |  |

— patent US20100215670A1 (published 2010)
